Data: doi:10.1101/2020.03.09.984104 (bioRxiv, 2020)

B1: NRLLTG (peptide)
peptide: NRLLTG
B2: NRNNTG (peptide)
peptide: NRNNTG
B3: ALLLMYRR (peptide)
peptide: ALLLMYRR
B4: GFRNNNMYRF (peptide)
peptide: GFRNNNMYRF
B5: GFRVVLMYRF (peptide)
peptide: GFRVVLMYRF
B6: ANNNMYRR (peptide)
peptide: ANNNMYRR

Biological target: E. coli Hsp70 (DnaK) (E. coli, UniProt P0A6Y8 1-638)
Assay: SPR

E. coli Hsp70 (DnaK), sequence (P0A6Y8 whole entry): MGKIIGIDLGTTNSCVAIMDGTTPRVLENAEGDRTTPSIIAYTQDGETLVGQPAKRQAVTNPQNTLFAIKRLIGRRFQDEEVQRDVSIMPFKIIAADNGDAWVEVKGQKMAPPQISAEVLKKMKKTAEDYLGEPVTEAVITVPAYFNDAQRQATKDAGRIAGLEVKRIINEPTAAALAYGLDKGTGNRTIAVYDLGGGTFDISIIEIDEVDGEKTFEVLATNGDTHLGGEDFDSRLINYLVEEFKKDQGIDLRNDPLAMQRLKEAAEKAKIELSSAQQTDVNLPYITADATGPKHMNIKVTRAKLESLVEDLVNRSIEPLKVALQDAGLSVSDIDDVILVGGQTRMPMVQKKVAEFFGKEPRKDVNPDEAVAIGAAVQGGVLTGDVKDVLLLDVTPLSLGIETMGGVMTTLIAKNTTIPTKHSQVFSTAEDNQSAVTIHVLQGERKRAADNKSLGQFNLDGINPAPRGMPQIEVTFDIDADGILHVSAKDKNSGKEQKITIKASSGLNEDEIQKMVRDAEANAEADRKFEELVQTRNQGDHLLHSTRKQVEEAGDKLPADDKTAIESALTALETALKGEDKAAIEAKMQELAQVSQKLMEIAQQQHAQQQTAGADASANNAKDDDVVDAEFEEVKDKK

Binder | binding result
B1 | binds
B2 | binds
B3 | binds
B4 | binds
B5 | binds
B6 | binds
